Columns and labels:
Assay in all cases: SPR
Settings in all cases: both partners purified
RSVFV-1 = molecular target: T1, RSVFV-1 (synthetic construct (de novo scaffold …))
T1 construct: also called RSVF-V H6; source: E. coli BL21 (DE3), purified (Ni-NTA, SEC)
T1 chain: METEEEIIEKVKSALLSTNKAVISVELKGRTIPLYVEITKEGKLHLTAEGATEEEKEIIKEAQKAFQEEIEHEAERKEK

RSVFV-3 = molecular target: T2, RSVFV-3 (de novo design (synthetic))
T2 construct: source: E. coli BL21 (DE3), purified (Ni-NTA, SEC)
T2 chain: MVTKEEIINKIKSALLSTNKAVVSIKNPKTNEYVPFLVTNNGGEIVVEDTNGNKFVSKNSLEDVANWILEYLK

RSVFV-4 = molecular target: T3, RSVFV-4 (de novo design (synthetic))
T3 construct: source: E. coli BL21 (DE3), purified (Ni-NTA, SEC)
T3 chain: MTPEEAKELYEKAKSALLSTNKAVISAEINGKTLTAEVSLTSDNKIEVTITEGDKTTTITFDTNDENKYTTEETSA

RSVFV-2 = molecular target: T4, RSVFV-2 (de novo design (synthetic))
T4 construct: source: E. coli BL21 (DE3), purified (Ni-NTA, SEC)
T4 chain: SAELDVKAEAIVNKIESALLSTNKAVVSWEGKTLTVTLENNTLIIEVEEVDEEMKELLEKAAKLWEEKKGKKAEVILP

RSVF-multi-4 = molecular target: T5, RSVF-multi-4 (synthetic construct (de novo design))
T5 construct: also called RSVF-multi-4 WT; source: E. coli BL21 (DE3), purified (Ni-NTA, SEC)
T5 chain: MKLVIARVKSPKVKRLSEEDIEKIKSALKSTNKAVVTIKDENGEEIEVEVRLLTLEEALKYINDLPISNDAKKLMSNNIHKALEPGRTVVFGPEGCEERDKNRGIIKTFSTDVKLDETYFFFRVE

RSVF-multi-3 = molecular target: T6, RSVF-multi-3 (de novo design (synthetic))
T6 construct: source: E. coli BL21 (DE3), purified (Ni-NTA, SEC)
T6 chain: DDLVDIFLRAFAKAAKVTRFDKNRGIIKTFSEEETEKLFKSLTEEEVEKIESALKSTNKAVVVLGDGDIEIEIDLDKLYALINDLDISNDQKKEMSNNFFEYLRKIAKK

B1: RSV90 Fab (Fab, V domains shown)
VH: EVQLVESGGGLVQPRRSLRLSCAASGFTFDDYTIHWVRQAPGKGLEWVSGITWNSGYIGYADSVKGRFTISRDNARNSLYLQMNSLRAEDTALYYCVRDAYVSGSDYYYYGLDVWGRGTLVTVSS
VL: EIVMTSSPATLSVSPGERVTLFCRASQSVISNLAWYQQKSGQAPRLLIYGASTRATGIPSRFSGSGSGTEFTLTISSLQSEDFAVYFCQQYNNWPLTFGGGTQVNVQ
notes: also called hRSV90; site-V-specific antibody
B1 gave a Kd (RSVFV-1) of 54 nM, a Kd (RSVFV-3) of 94 nM and a Kd (RSVFV-4) of 241 nM. For the same binder, the Kd (RSVFV-2) was 108 nM.

B2: Motavizumab IgG (antibody, V domains shown)
VH: QVTLRESGPALVKPTQTLTLTCTFSGFSLSTAGMSVGWIRQPPGKALEWLADIWWDDKKHYNPSLKDRLTISKDTSKNQVVLKVTNMDPADTATYYCARDMIFNFYFDVWGQGTTVTVSS
VL: DIQMTQSPSTLSASVGDRVTITCSASSRVGYMHWYQQKPGKAPKLLIYDTSKLASGVPSRFSGSGSGTEFTLTISSLQPDDFATYYCFQGSGYPFTFGGGTKVEIK
notes: also called site-II-specific antibody
B2 gave a Kd (RSVF-multi-4) of 14 nM and a Kd (RSVF-multi-3) of 18 nM.
